# Patent US20090155255A1 (published 2009)
# T1: soluble CD23 antigen (soluble and monomeric form) (UniProt P06734 150-321)
# T1 chain: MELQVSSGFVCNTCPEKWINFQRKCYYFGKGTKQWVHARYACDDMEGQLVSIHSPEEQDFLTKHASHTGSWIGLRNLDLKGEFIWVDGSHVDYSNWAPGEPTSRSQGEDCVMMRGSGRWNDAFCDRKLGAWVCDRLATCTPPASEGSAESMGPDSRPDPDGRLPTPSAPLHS
# Legend:
# IEH-241 [1] = assay: DELFIA
# IEH-248 [2] = assay: DELFIA
# IEH-251 [3] = assay: DELFIA
# IEH-245 [4] = assay: DELFIA
# IEH-250 [5] = assay: DELFIA
# IEH-243 [6] = assay: DELFIA
# IEH-239 = assay: DELFIA
# IEH-241 [7] = assay: Biacore
# IEH-248 [8] = assay: Biacore
# IEH-251 [9] = assay: Biacore
# IEH-245 [10] = assay: Biacore
# IEH-250 [11] = assay: Biacore
# IEH-243 [12] = assay: Biacore
# [13] = target: T1, soluble CD23 antigen (soluble and …); assay: DELFIA
# [14] = target: T1, soluble CD23 antigen (soluble and …); assay: Biacore
# [15] = target: T1, soluble CD23 antigen (soluble and …); assay: FRET competition
Kd (IEH-241 [1]),Kd (IEH-248 [2]),Kd (IEH-251 [3]),Kd (IEH-245 [4]),Kd (IEH-250 [5]),Kd (IEH-243 [6]),Kd (IEH-239),Kd (IEH-241 [7]),Kd (IEH-248 [8]),Kd (IEH-251 [9]),Kd (IEH-245 [10]),Kd (IEH-250 [11]),Kd (IEH-243 [12]),Kd [13],Kd [14],IC50 [15],Binder
1.2 nM,2.4 nM,1.5 nM,1 nM,2.6 nM,1.2 nM,3 nM,4.6 nM,1.3 nM,3.2 nM,1.1 nM,4.3 nM,2.8 nM,,,,CD23 (receptor) MELQVSSGFVCNTCPEKWINFQRKCYYFGKGTKQWVHARYACDDMEGQLVSIHSPEEQDFLTKHASHTGSWIGLRNLDLKGEFIWVDGSHVDYSNWAPGEPTSRSQGEDCVMMRGSGRWNDAFCDRKLGAWVCDRLATCTPPASEGSAESMGPDSRPDPDGRLPTPSAPLHS
,,,,,,,,,,,,,1.2 nM,0.8 nM,0.052 µg/mL,stabilized p5E8 pIEH252 scFv (scFv) scFv: DIQMTQSPSSLSASVGDRVTITCRASQDIRYYLNWYQQKPGKAPKLLIYSASSLQSGVPSRFSGSGSGTEFTLTVSSLQPEDAATYYCLQVYSTPRTFGQGTKVEIKGGGGSGGGGSGGGGSEVQLVQSGGGLAKPGGSLRLSCAASGFRFTFSNYYMDWVRQAPGQGLEWVGRISSSGDPTWYADSVKGRFTISRDNAKNTLFLQMNSLRAEDTAVYYCASLTTGSDSWGQGVLVTVSS
,,,,,,,,,,,,,1 nM,0.9 nM,0.061 µg/mL,stabilized p5E8 pIEH246 scFv (scFv) scFv: DIQMTQSPSSLSASVGDRVTITCRASQDIRYYLNWYQQKPGKAPKLLIYSASSLQSGVPSRFSGSGSGTEFTLTVSSLQPEDAATYYCLQVYSTPRTFGQGTKVEIKGGGGSGGGGSGGGGSEVQLVQSGGGLAKPGGSLRLSCAASGFRFTFNNYYMDWVRQAPGQGLEWVGRISSSGDHTWYADSVKGRFTISRENAKNTLFLQMNSLRAEDTAVYYCASLTTGSDSWGQGVLVTVSS
